Measured values published in PMC6910826.

Target: 6xHis-Zasp52-PK-FLAG (Drosophila melanogaster)
Test: cross-linking; purified 6xHis-Zasp52-PK-FLAG incubated with EGS or alone; SDS-PAGE and anti-Flag western blot

Chain of 6xHis-Zasp52-PK-FLAG (A1ZA47 whole entry): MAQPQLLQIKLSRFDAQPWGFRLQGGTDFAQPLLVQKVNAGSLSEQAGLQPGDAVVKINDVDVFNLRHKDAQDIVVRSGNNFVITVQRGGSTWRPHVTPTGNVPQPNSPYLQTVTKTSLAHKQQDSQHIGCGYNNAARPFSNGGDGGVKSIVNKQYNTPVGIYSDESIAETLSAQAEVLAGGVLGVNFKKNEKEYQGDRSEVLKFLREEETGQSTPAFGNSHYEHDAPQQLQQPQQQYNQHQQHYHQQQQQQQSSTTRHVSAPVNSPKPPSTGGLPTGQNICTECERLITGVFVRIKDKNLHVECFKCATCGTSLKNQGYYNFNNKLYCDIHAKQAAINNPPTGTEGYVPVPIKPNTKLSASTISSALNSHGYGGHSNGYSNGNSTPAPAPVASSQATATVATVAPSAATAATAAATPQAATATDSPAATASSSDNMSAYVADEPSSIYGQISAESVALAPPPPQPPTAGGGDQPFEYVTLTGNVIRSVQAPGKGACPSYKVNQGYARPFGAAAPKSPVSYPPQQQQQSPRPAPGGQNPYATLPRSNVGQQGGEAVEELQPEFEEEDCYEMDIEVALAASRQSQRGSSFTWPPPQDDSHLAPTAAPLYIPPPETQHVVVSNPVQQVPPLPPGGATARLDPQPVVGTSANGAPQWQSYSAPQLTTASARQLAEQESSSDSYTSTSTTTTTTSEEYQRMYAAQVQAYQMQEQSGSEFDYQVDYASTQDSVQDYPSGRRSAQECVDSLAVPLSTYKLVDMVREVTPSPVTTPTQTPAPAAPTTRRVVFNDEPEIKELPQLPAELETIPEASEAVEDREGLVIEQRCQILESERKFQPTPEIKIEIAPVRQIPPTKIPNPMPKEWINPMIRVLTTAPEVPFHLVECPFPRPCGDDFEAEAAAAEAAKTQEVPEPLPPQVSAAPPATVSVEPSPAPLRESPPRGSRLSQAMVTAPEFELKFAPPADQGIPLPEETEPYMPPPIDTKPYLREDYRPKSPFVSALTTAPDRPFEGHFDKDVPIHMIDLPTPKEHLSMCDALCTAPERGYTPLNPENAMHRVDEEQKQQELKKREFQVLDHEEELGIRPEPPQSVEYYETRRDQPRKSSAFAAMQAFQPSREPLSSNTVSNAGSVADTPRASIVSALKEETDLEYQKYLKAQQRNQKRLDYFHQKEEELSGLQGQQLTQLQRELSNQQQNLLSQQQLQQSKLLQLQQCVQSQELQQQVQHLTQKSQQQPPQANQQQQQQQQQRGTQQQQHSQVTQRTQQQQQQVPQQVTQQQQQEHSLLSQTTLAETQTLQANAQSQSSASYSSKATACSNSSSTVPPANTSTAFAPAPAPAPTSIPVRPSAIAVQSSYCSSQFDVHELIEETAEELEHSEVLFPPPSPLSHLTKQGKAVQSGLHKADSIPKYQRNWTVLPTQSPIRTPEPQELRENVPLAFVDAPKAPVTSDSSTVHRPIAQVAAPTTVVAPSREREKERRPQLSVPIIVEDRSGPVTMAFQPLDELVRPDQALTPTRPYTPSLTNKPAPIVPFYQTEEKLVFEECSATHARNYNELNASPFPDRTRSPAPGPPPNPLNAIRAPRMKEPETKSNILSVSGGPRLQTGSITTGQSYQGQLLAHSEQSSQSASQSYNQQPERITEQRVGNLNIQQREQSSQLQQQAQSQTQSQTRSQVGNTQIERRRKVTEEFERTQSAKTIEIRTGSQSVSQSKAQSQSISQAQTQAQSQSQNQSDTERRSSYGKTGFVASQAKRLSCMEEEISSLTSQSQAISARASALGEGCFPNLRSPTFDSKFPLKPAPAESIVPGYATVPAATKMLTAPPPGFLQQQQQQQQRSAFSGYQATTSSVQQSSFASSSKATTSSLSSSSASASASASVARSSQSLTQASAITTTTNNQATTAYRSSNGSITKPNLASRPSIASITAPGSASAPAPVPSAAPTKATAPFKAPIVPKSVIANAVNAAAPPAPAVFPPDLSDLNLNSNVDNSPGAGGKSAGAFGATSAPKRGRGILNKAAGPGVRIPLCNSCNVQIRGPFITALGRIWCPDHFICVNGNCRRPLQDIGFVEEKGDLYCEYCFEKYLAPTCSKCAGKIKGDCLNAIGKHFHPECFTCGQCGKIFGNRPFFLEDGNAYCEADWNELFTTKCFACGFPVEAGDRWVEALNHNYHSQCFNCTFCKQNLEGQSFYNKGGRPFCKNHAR

## 6xHis-Zasp52-PK-FLAG (natural protein)
  stoichiometry N: 2
